Values joined by “and” are separate entries in the source; they are usually repeats but may differ in a detail not shown here. Equal entries are not always repeated.
Legend:
[1] = target: adaptor protein (gp41) of bacteriophage JBD30 (bacteriophage JBD30 (Casadabanvirus JBD30)); experiment: cryo-EM structure; single-particle reconstructions (icosahedral, C5, C12, C6, C3, asymmetric, localized) of purified JBD30 virions and empty particles in phage buffer (10 mM MgSO4, 10 mM NaCl, 50 mM Tris pH 8); native assembly
[2] = target: baseplate hub protein (gp53) of bacteriophage JBD30 (bacteriophage JBD30 (Casadabanvirus JBD30)); experiment: as above
[3] = target: distal tail protein (gp49) of bacteriophage JBD30 (bacteriophage JBD30 (Casadabanvirus JBD30)); experiment: as above
[4] = target: major capsid protein (gp38) of bacteriophage JBD30 (bacteriophage JBD30 (Casadabanvirus JBD30)); experiment: cryo-EM structure; single-particle reconstruction of JBD30 procapsids found in the purified phage sample (icosahedral, C5, localized C12 portal)
[5] = target: major capsid protein (gp38) of bacteriophage JBD30 (bacteriophage JBD30 (Casadabanvirus JBD30)); experiment: cryo-EM structure; single-particle reconstructions (icosahedral, C5, C12, C6, C3, asymmetric, localized) of purified JBD30 virions and empty particles in phage buffer (10 mM MgSO4, 10 mM NaCl, 50 mM Tris pH 8); native assembly
[6] = target: major tail protein (gp44) of bacteriophage JBD30 (bacteriophage JBD30 (Casadabanvirus JBD30)); experiment: as above
[7] = target: minor capsid protein (gp39) of bacteriophage JBD30 (bacteriophage JBD30 (Casadabanvirus JBD30)); experiment: as above
[8] = target: portal protein (gp32) of bacteriophage JBD30 (bacteriophage JBD30 (Casadabanvirus JBD30)); experiment: cryo-EM structure; single-particle reconstruction of JBD30 procapsids found in the purified phage sample (icosahedral, C5, localized C12 portal)
[9] = target: portal protein (gp32) of bacteriophage JBD30 (bacteriophage JBD30 (Casadabanvirus JBD30)); experiment: cryo-EM structure; single-particle reconstructions (icosahedral, C5, C12, C6, C3, asymmetric, localized) of purified JBD30 virions and empty particles in phage buffer (10 mM MgSO4, 10 mM NaCl, 50 mM Tris pH 8); native assembly
[10] = target: receptor binding protein (gp54) of bacteriophage JBD30 (bacteriophage JBD30 (Casadabanvirus JBD30)); experiment: as above
[11] = target: stopper protein (gp42) of bacteriophage JBD30 (bacteriophage JBD30 (Casadabanvirus JBD30)); experiment: as above
[12] = target: tape measure protein (gp46) of bacteriophage JBD30 (bacteriophage JBD30 (Casadabanvirus JBD30)); experiment: as above

Substance: adaptor protein (gp41) of bacteriophage JBD30 (natural protein)
- stoichiometry N [1]: 12

Substance: baseplate hub protein (gp53) of bacteriophage JBD30 (natural protein)
- stoichiometry N [2]: 3

Substance: distal tail protein (gp49) of bacteriophage JBD30 (natural protein)
- stoichiometry N [3]: 3

Substance: major capsid protein (gp38) of bacteriophage JBD30 (natural protein)
- stoichiometry N [4]: 5 and 6
- stoichiometry N [5]: 5 and 6

Substance: major tail protein (gp44) of bacteriophage JBD30 (natural protein)
- stoichiometry N [6]: 6

Substance: minor capsid protein (gp39) of bacteriophage JBD30 (natural protein)
- stoichiometry N [7]: 3

Substance: portal protein (gp32) of bacteriophage JBD30 (natural protein)
- stoichiometry N [8]: 12
- stoichiometry N [9]: 12

Substance: receptor binding protein (gp54) of bacteriophage JBD30 (natural protein)
- stoichiometry N [10]: 3

Substance: stopper protein (gp42) of bacteriophage JBD30 (natural protein)
- stoichiometry N [11]: 6

Substance: tape measure protein (gp46) of bacteriophage JBD30 (natural protein)
- stoichiometry N [12]: 3

From PMC11445458
